Test results: the supplement of paper PMC7877785
± gives the uncertainty stated by the source.

Test: self-splicing fitness, log relative to wild type (ln ratio); higher = more splicing; Tetrahymena group I intron in knt gene, E. coli kanamycin selection, DiMSum; sequences stand for … in CUCUCU…GGAGGGAAAAGUUAUCAGGCAUGCACCUGGUAGCUAGUCUUUAAACCAAUAGAUUGCAUCGGUUUAAAAGGCAAGACCGUCAAAUUGCGGGAAAGGGGUCAACAGCCGUUCAGUACCAAGUCUCAGGGGAAACUUUGAGAUGGCCUUGCAAAGGGUAUGGUAAUAAGCUGACGGACAUGGUCCUAACCACGCAGCCAAGUCCUAAGUCAACAGAUCUUCUGUUGAUAUGGAUGCAGUUCACAGACUAAAUGUCGGUCGGGGAAGAUGUAUUCUUCUCAUAAGAUAUAGUCGGACCUCUCCUUAAUGGGAGCUAGCGGAUGAAGUGAUGCAACACUGGAGCCGCUGGGAACUAAUUUGUAUGCGAAAGUAUAUUGAUUAGUUUUGGAGUACUCGUGGUCG
How it was run: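 Library with all eight P1ex-region intron nucleotides randomised, intron inside the knt kanamycin-resistance gene on pET-22b(+), in E. coli BL21(DE3). Cells grew overnight at 37°C or 30°C on LB agar with or without 25 μg/mL kanamycin (plus 100 μg/mL carbenicillin, 50 μM IPTG, 0.2% rhamnose), in six replicate transformations. Pooled colonies were amplicon-sequenced on Illumina HiSeq 2500. DiMSum fitness is the error-weighted combination of wild-type-normalised replicate fold changes, kanamycin versus none.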

| Sequence | self-splicing fitness (ln) (30 °C) | self-splicing fitness (ln) (37 °C) |
| --- | --- | --- |
| CGCAAGCAAUAUUACGUUAG | -1.15 ± 0.073 | -1.42 ± 0.1 |
| GCUUAGCAAUAUUACGCCUG | -2.35 ± 0.14 | -1.02 ± 0.13 |
| CCAUAGCAAUAUUACGUACA | -3.14 ± 0.21 | -1.96 ± 0.21 |
| UAUUAGCAAUAUUACGCGAC | -3.03 ± 0.25 | -1.41 ± 0.24 |
| ACGAAGCAAUAUUACGGAGG | -2.97 ± 0.16 | -1.69 ± 0.14 |
| CACGAGCAAUAUUACGAUUA | -3.34 ± 0.31 | -2.12 ± 0.25 |
| AUGGAGCAAUAUUACGCGUA | -2.62 ± 0.44 | -2.09 ± 0.31 |
| GCUCAGCAAUAUUACGCGAC | -3.49 ± 0.3 | 0.167 ± 0.16 |
| ACUUAGCAAUAUUACGCAGG | -2.19 ± 0.13 | -1.79 ± 0.15 |
| GGAGAGCAAUAUUACGUUUG |  | -2.01 ± 0.38 |
| CACUAGCAAUAUUACGUAUA | -3.17 ± 0.36 | -1.5 ± 0.23 |
| GUCGAGCAAUAUUACGCAGG |  | -3.05 ± 0.38 |
| CCUUAGCAAUAUUACGUGCC | -4.23 ± 0.25 | -2.41 ± 0.28 |
| CCAAAGCAAUAUUACGAAUG | -1.03 ± 0.07 | -0.166 ± 0.092 |
| CGUAAGCAAUAUUACGUUUC | -3.97 ± 0.24 | -1.92 ± 0.2 |
| GUCAAGCAAUAUUACGUCCC | -1.22 ± 0.29 | -0.2 ± 0.26 |
| GAGAAGCAAUAUUACGCGCA | -0.304 ± 0.11 | 0.342 ± 0.12 |
| AUUCAGCAAUAUUACGUAAG | -0.27 ± 0.069 | -0.22 ± 0.093 |
| AGCAAGCAAUAUUACGCCGU | -1.05 ± 0.11 | -0.892 ± 0.11 |
| AAGUAGCAAUAUUACGUUAU | -1.93 ± 0.13 | -0.642 ± 0.11 |
| UUCAAGCAAUAUUACGCAGG | -2.71 ± 0.14 | -1.78 ± 0.13 |
| AACUAGCAAUAUUACGCCUG | -1.08 ± 0.12 | -1.43 ± 0.13 |
| UGGUAGCAAUAUUACGCUCG | 0.322 ± 0.17 | 0.532 ± 0.25 |
| CCGCAGCAAUAUUACGUAAC | -3.86 ± 0.3 | -2.7 ± 0.29 |
| GAGCAGCAAUAUUACGUGGA | -3.09 ± 0.22 | -1.69 ± 0.15 |

| Sequence | self-splicing fitness (ln) (30 °C) | self-splicing fitness (ln) (37 °C) |
| --- | --- | --- |
| GGGGAGCAAUAUUACGUCGU | -2.77 ± 0.18 | -1.63 ± 0.21 |
| ACGAAGCAAUAUUACGCCCU | -0.468 ± 0.1 | 0.19 ± 0.12 |
| GCCUAGCAAUAUUACGACUC | -0.376 ± 0.14 | 0.0998 ± 0.17 |
| UCAUAGCAAUAUUACGCGUC | -3.76 ± 0.31 |  |
| CACUAGCAAUAUUACGUAAC | -3.68 ± 0.27 | -1.88 ± 0.24 |
| AUAUAGCAAUAUUACGCAAU | -1.49 ± 0.17 | -0.77 ± 0.22 |
| AGGUAGCAAUAUUACGGCUG | -1.13 ± 0.016 | -1 ± 0.037 |
| CUCCAGCAAUAUUACGUGCC | -3.68 ± 0.33 | -0.249 ± 0.27 |
| GGUAAGCAAUAUUACGUUUA | -2.68 ± 0.17 | -0.278 ± 0.11 |
| GGCAAGCAAUAUUACGAGCA | -0.434 ± 0.13 | -0.381 ± 0.14 |
| CAUCAGCAAUAUUACGAGCA | -2.05 ± 0.23 | -0.921 ± 0.14 |
| GUUGAGCAAUAUUACGAGAG | -3.95 ± 0.4 | -2.63 ± 0.41 |
| CAAGAGCAAUAUUACGGAGU | -3.12 ± 0.18 | -2.55 ± 0.22 |
| GGUUAGCAAUAUUACGACUC | -1.58 ± 0.17 | -0.677 ± 0.21 |
| CCACAGCAAUAUUACGUGUA | -3.23 ± 0.096 | -1.63 ± 0.069 |
| UUACAGCAAUAUUACGCGGA | -1.6 ± 0.12 | -0.823 ± 0.095 |
| GUCCAGCAAUAUUACGCGUA | -0.0475 ± 0.068 | 0.185 ± 0.07 |
| GACAAGCAAUAUUACGAGGC | -2.4 ± 0.16 | -2.76 ± 0.32 |
| UGAUAGCAAUAUUACGAGUU | -3.82 ± 0.24 | -2.73 ± 0.21 |
| CUUUAGCAAUAUUACGUACA | -2.89 ± 0.22 |  |
| CCCGAGCAAUAUUACGUGGU | -4.96 ± 0.34 | -2.59 ± 0.19 |
| GUACAGCAAUAUUACGUUUG | -3.06 ± 0.13 | -2.59 ± 0.17 |
| UGUGAGCAAUAUUACGUAUU | -3.12 ± 0.16 | -2.63 ± 0.26 |
| CUGGAGCAAUAUUACGGGGU | -3.12 ± 0.31 | -1.53 ± 0.27 |
| UGCAAGCAAUAUUACGAUCA | 0.00924 ± 0.069 | 0.117 ± 0.077 |

| Sequence | self-splicing fitness (ln) (30 °C) | self-splicing fitness (ln) (37 °C) |
| --- | --- | --- |
| AGCGAGCAAUAUUACGUCAU | -3.13 ± 0.21 | -1.88 ± 0.2 |
| UGAGAGCAAUAUUACGGUUG | -2.6 ± 0.12 | -2.64 ± 0.19 |
| CUGAAGCAAUAUUACGGUAC | -2.82 ± 0.18 | -2.71 ± 0.26 |
| CGAUAGCAAUAUUACGGGCG | -1.67 ± 0.12 | -0.602 ± 0.11 |
| CAUGAGCAAUAUUACGCAUG | -3.01 ± 0.2 | -1.18 ± 0.25 |
| CACAAGCAAUAUUACGAGCU | -3.48 ± 0.24 | -3.29 ± 0.3 |
| CCCGAGCAAUAUUACGUGUA | -3.33 ± 0.2 | -2.97 ± 0.32 |
| AUGAAGCAAUAUUACGACGG | -0.0267 ± 0.085 | 0.216 ± 0.14 |
| UCCGAGCAAUAUUACGUGUG | -3.13 ± 0.11 | -0.996 ± 0.088 |
| ACGUAGCAAUAUUACGCCAU | -3.02 ± 0.19 | -2.55 ± 0.24 |
| ACAAAGCAAUAUUACGGUGC | -2.89 ± 0.12 | -2.32 ± 0.12 |
| CAAGAGCAAUAUUACGGUCA | -2.4 ± 0.19 | -2.45 ± 0.23 |
| UCAGAGCAAUAUUACGCGUU | -4.72 ± 0.29 | -2.78 ± 0.21 |
| CAGUAGCAAUAUUACGCAUA | -2.04 ± 0.2 | -1.59 ± 0.21 |
| ACGGAGCAAUAUUACGCAAA | -2.73 ± 0.25 | -1.58 ± 0.22 |
| CGUUAGCAAUAUUACGUUAC | -2.82 ± 0.32 | -2.83 ± 0.43 |
| AGCGAGCAAUAUUACGCCAU | -4.12 ± 0.46 | -1.58 ± 0.18 |
| AAGCAGCAAUAUUACGGCGA | -0.328 ± 0.075 | 0.355 ± 0.094 |
| CGUGAGCAAUAUUACGUCCC |  | -1.09 ± 0.42 |
| CCACAGCAAUAUUACGACUG | -2.92 ± 0.11 | -0.694 ± 0.092 |
| ACUUAGCAAUAUUACGGCUU | -0.359 ± 0.14 | -0.614 ± 0.19 |
| AGAGAGCAAUAUUACGAUUU | -1.52 ± 0.11 | -0.748 ± 0.11 |
| GCACAGCAAUAUUACGAUAG | -1.91 ± 0.087 | -1.14 ± 0.1 |
| UAUUAGCAAUAUUACGAGCA | -0.606 ± 0.12 | -0.18 ± 0.17 |
| CUGUAGCAAUAUUACGCUGA | -1.34 ± 0.16 | -3.78 ± 0.29 |

| Sequence | self-splicing fitness (ln) (30 °C) | self-splicing fitness (ln) (37 °C) |
| --- | --- | --- |
| GUAUAGCAAUAUUACGUUCG | -2.09 ± 0.21 | -1.53 ± 0.19 |
| CAUAAGCAAUAUUACGACAG | -0.32 ± 0.072 | 0.334 ± 0.09 |
| GUAAAGCAAUAUUACGUACG | -0.843 ± 0.069 | -0.015 ± 0.1 |
| GUCGAGCAAUAUUACGUAUU | -1.52 ± 0.29 | -0.948 ± 0.23 |
| GAAGAGCAAUAUUACGUUAU | -3.85 ± 0.25 | -1.47 ± 0.2 |
| CUAGAGCAAUAUUACGCUGU | -3.92 ± 0.37 | -2.69 ± 0.36 |
| UGGGAGCAAUAUUACGCUUG | -1.62 ± 0.23 | 0.249 ± 0.23 |
| CAAAAGCAAUAUUACGAAAU | -3.75 ± 0.17 | -2.89 ± 0.23 |
| CGACAGCAAUAUUACGAAGG | -1.94 ± 0.092 | -0.848 ± 0.13 |
| UAGAAGCAAUAUUACGUGUU | -3.84 ± 0.14 | -2.42 ± 0.11 |
| AAAUAGCAAUAUUACGAAUA | -1.7 ± 0.16 | -1.18 ± 0.15 |
| UACGAGCAAUAUUACGCGCC | -2.33 ± 0.42 |  |
| AAGCAGCAAUAUUACGUUUG | -3.04 ± 0.13 | -1.73 ± 0.14 |
| GUGCAGCAAUAUUACGUUCC | -2.72 ± 0.18 | -1.05 ± 0.25 |
| CAUGAGCAAUAUUACGACGG | -0.356 ± 0.12 | -0.199 ± 0.17 |
| ACGUAGCAAUAUUACGAACG | -1 ± 0.082 | -0.927 ± 0.12 |
| GGAGAGCAAUAUUACGAUAG |  | -1.94 ± 0.28 |
| AGUGAGCAAUAUUACGCGCC | -2.21 ± 0.23 |  |
| ACACAGCAAUAUUACGACCA | -0.337 ± 0.085 | 0.147 ± 0.093 |
| CCCGAGCAAUAUUACGCGAC | -1.96 ± 0.29 | -1.68 ± 0.29 |
| AAGGAGCAAUAUUACGGCAA | -2.54 ± 0.39 |  |
| AGGUAGCAAUAUUACGAUCC | -0.0773 ± 0.022 | 0.212 ± 0.039 |
| GUAGAGCAAUAUUACGCAAC | -1.79 ± 0.24 | -0.94 ± 0.39 |
